# In US20230073007A1, “SWITCHING BINDER, PREPARATION METHOD THEREFOR, AND PHARMACEUTICAL COMPOSITION, ASSAY KIT, AND ANTIGEN AND ANTIBODY ASSAY METHOD, EACH USING SAME” (OPTOLANE TECHNOLOGIES INC., priority 2019, published 2023):
# Target: anti-HRP antibody
# Assay: release of labelled peptide L1 from anti-HRP antibody in solution, HRP concentration varied; released peptide separated and read by fluorescence
substance,measurement,value
HRP (from UniProt P00433 31-338) (enzyme),EC50 (read off the curve),900 nM
